Among the data in publication PMC10349951 are stoichiometry N values, retold here.

Several values for one entry are separate records, joined by “and”; a condition that tells them apart may be missing. Equal entries are not always repeated.

This experiment concerns the target Recombinant Halo-tagged Synaptophysin labeled with Alexa488 (mouse) (UniProt Q62277). In words: single-molecule TIRF step photobleaching.

The term stoichiometry N denotes the number of molecules, sites or subunits per partner or assembly. As for “Recombinant Halo-tagged Synaptophysin labeled with Alexa488 (from UniProt Q62277 1-314) (natural protein)”, the stoichiometry N was 3 copies and 5 copies.
